Experimental data reported in patent US20030152946A1, “Bh4-fused polypeptides” (priority 1999, published 2003).

Assays:
[1] = biological target: T1, Rat liver VDAC (Rattus norvegicus, UniProt Q9Z2L0); test: VDAC activity: sucrose uptake into VDAC liposomes (liposomal swelling, light scatter at 520 nm); type: biochemical; details: for Inhibition of VDAC activity (VDAC-mediated sucrose uptake): 20 μg/ml protein or polypeptide
T1 construct: Rat liver VDAC was purified in accordance with a report made by Shimizu et al; from tissue; host or cells: rat liver (mitochondria)
Experimental: Purified VDAC was reconstituted in small unilamellar vesicles by the ultrasonic freeze-thaw procedure described in a report made by Shimizu et al. [Nature, 399, 483-487 (1999)]. Sucrose uptake experiment was performed by assessing liposomal swelling.
Liposomes produced at pH 5.2 were incubated at 25° C. in 1 ml of liposome buffer together with rBcl-xL, rΔ21, rBax or a polypeptide for 3 minutes. Here, acidic pH was a required condition for efficient uptake of rBcl-xL and rBax into the liposomes. Thereafter, sucrose was added up to a concentration of 50 mM to the mixture, and the liposomal swelling was assessed by the decrease in light scatter at a wavelength of 520 nm using a spectrophotometer (F-4500, manufactured by Hitachi, Ltd.). Sucrose uptake was also estimated from ^14C-sucrose uptake as described in the report made by Shimizu et al. [Nature, 399, 483-487(1999)].
Next, the functional role of the BH4 domain in the regulation of VDAC activity was examined. VDAC activity was measured by assessing sucrose uptake into VDAC-containing liposomes, using the two procedures: a method with radiolabeled sucrose described in a report made by Shimizu et al. [Nature, 399, 483-487 (1999)], and a method for measuring a sucrose uptake-dependent liposomal swelling that was monitored by decrease in light scatter. Since sucrose-uptake-dependent liposomal swelling was confirmed by microscopic observation or flow cytometric analysis, it is thought that the liposomal swelling is based on the rapid influx of sucrose and water through large VDAC pores which overwhelmed osmosis-dependent efflux of water.

[2] = tested on: Rat liver mitochondria; test: Ca2+-induced ΔΨ loss in isolated mitochondria (Rhodamine 123 uptake); type: biochemical; details: for Inhibition of Ca2+-induced mitochondrial ΔΨ loss: mitochondria 1 mg/ml, 40 μM Ca2+, 20 μg/ml protein or polypeptide
Experimental: (§1) Rat liver mitochondria (1 mg protein/ml) isolated in accordance with a report made by Shimizu et al. [Oncogene, 13, 21-29(1996)] were incubated at 25° C. in a medium containing 0.3 M mannitol, 10 mM HEPES/K^+ (pH 7.4), 0.1% fatty acid-free BSA, 1 mM potassium phosphate, 40 μM CaCl2 and 4.2 mM succinate for energization in the presence or absence of recombinant proteins.
ΔΨ was assessed by measuring the uptake of Rhodamine 123 (Rh123) as previously described by Shimizu et al. [Oncogene, 13, 21-29(1996)].
Isolated mitochondria (1 mg/ml) were incubated with 20 μg/ml Bcl-xL BH4 polypeptide in the presence of 40 μM Ca^2+, and thereafter Rhodamine 123 intensity was continuously monitored. The results are shown in the left panel of FIG. 14. In addition, isolated mitochondria (1 mg/ml) were incubated with 20 μg/ml BH4 polypeptide of Bcl-xL and any of various mutant polypeptides in the presence of 40 μM Ca for 15 minutes, and thereafter ΔΨ was measured by Rhodamine 123 intensity. The results are shown in the right panel of FIG. 14.

[3] = tested on: Rat liver mitochondria; test: Ca2+-induced cytochrome c release from isolated mitochondria (Western blot); type: biochemical; details: mitochondria 1 mg/ml, 40 μM Ca2+, 20 μg/ml protein
Experimental: as §1
The cytochrome c release was evaluated by centrifuging the above-mentioned mitochondria, re-suspending the resulting pellets in an RIPA buffer to give mitochondria suspension, and subjecting the mitochondria suspension and supernatant to Western blot analysis using anti-cytochrome c antibodies.

[4] = biological target: T2, VDAC (Rattus norvegicus, UniProt Q9Z2L0); test: Co-immunoprecipitation with VDAC and Western blot; type: binding; details: 20 μg/ml protein or polypeptide
T2 construct: from tissue; host or cells: rat liver (purified VDAC, or isolated mitochondria)
Experimental: Purified VDAC (20 μg/ml) was incubated with recombinant BCl-xL (rBcl-xL) and recombinant Δ21 (rΔ21), and the resulting mixture was immunoprecipitated with anti-Bcl-xL (L19) antibody and normal rabbit IgG. In order to detect interactions between polypeptide and VDAC, isolated mitochondria (1 mg) were incubated with 20 μg of Bcl-xL N-terminal polypeptide or Bcl-xL C-terminal polypeptide for 5 minutes. Thereafter, the resulting mitochondria were pelleted, washed, and suspended in a lysis buffer (10 mM HEPES, pH 7.4, 142.5 mM KCl, 5 mM MgCl2, 1 mM EGTA and 0.5% NP40) in the presence of proteinase inhibitors (0.1 mM p-APMSF, 10 μg/ml aprotinin, 1 μg/ml chymostatin, 1 μg/ml leupeptin, 1 μg/ml antipain, 1 μg/ml pepstatin), followed by ultrasonic disruption. Immunoprecipitation was carried out with anti-Bcl-x polyclonal antibodies corresponding to the polypeptides used. Co-immunoprecipitation of VDAC was detected by Western blotting using an anti-VDAC antibody.

[5] = tested on: HeLa cells; test: VP16-induced apoptosis in HeLa cells in the presence of TAT-BH4 polypeptide; type: cell-based, human; details: VP16 for 24 hours, polypeptide in the culture medium
Experimental: FIG. 17 is a diagram showing the results for evaluating the effect of TAT-BH4 polypeptide on VP16-induced apoptosis. Cells were treated with VP16 at the indicated concentrations for 24 hours in the presence of 100 μg/ml TAT-BH4 polypeptide (□) or TAT polypeptide (∘) or absence of polypeptide (●) and then stained with Hoechst 33342. Apoptotic cell death was determined by the morphology of nuclei using a fluorescence microscope. Data shown are from one of three independent experiments.
FIG. 18 is a diagram showing the results for evaluating the dose-dependent inhibition of VP16-induced apoptosis by TAT-BH4 polypeptide. […] Apoptotic cell death was determined in the same manner as in FIG. 17.
The inhibition and promotion of apoptosis can be evaluated by, for instance, the following method, without being limited thereto.
Therefore, in order to facilitate the transport of the BH4 polypeptide into cells, the above-mentioned TAT-BH4 polypeptide of 30 amino acid residues was synthesized, the polypeptide comprising N-terminal eosin-conjugated cystein and the PTD of HIV TAT protein fused to the Bcl-xL BH4 polypeptide. HeLa cells were treated with 200 μM VP16 in the presence of the TAT-BH4 polypeptide, and then observed by an optical phase-contrast microscope and a fluorescence microscope, respectively. […]

[6] = biological target: T3, Bax (Homo sapiens, UniProt Q07812); test: Binding of BH4 polypeptide to Bax
T3 construct: made in house

[7] = biological target: rat liver VDAC (voltage-dependent anion channel) (rat, UniProt Q9Z2L0 2-283); test: cell-based or functional assay
rat liver VDAC (voltage-dependent anion channel), sequence (Q9Z2L0 2-283): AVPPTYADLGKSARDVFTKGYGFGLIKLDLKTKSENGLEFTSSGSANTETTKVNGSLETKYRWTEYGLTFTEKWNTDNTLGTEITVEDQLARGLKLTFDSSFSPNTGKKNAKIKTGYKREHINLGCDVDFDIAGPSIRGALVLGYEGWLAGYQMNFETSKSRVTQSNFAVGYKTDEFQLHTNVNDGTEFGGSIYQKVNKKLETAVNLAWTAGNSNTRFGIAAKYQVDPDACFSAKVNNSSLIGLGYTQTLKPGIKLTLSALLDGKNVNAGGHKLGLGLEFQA

T1 sequence (Q9Z2L0 whole entry): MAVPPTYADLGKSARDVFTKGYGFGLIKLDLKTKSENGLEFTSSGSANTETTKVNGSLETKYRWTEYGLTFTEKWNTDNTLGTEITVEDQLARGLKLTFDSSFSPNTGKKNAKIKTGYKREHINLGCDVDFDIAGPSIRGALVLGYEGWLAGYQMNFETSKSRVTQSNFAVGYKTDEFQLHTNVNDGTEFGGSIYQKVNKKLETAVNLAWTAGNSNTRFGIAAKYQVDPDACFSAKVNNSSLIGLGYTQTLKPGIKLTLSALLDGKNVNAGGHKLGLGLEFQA
T2 sequence (Q9Z2L0 whole entry): as above
T3 sequence (Q07812 whole entry): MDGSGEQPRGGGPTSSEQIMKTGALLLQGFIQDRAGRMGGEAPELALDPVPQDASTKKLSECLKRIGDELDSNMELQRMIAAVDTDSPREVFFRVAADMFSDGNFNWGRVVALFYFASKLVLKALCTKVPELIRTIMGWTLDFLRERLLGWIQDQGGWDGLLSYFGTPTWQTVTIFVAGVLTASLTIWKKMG

TGYDNREIVMKYIHYKLSQRGYEW (listed as Homo sapiens) [BH4 polypeptide derived from Bcl-2, amino acid nos: 7 to 30 of human Bcl-2]
Inhibition of VDAC activity (VDAC-mediated sucrose uptake) ([1]; VDAC liposomes, 50 mM sucrose): inhibited VDAC activity

rΔ21: recombinant human Bcl-xL lacking the N-terminus 21 amino acids residues (BH4 deletion mutant)
Inhibition of VDAC activity (VDAC-mediated sucrose uptake) ([1]; VDAC liposomes, 50 mM sucrose): did not affect | Inhibition of Ca2+-induced mitochondrial ΔΨ loss [2]: did not virtually show inhibitory activity | Inhibition of Ca2+-induced cytochrome c release [3]: did not virtually show inhibitory activity

VAQDTEEVFRSYVFYRHQQEQEAE [polypeptide derived from Bak, reference compound]
Inhibition of VDAC activity (VDAC-mediated sucrose uptake) ([1]; VDAC liposomes, 50 mM sucrose): inactive

LV89VF: L8V9 mutant of human Bcl-xL BH4 polypeptide (FIG. 13) (SNREVFVDFLSYKLSQKGYS) [reference compound]
Inhibition of VDAC activity (VDAC-mediated sucrose uptake) ([1]; VDAC liposomes, 50 mM sucrose): did not inhibit

N-terminal fragment (amino acid nos: 2 to 9) of Bcl-xL: N-terminal (amino acid nos: 2 to 19) polypeptide of Bcl-xL purchased from Santa Cruz Biotechnology (SQSNRELVVDFLSYKLSQ) [reference compound]
Interaction with VDAC (co-immunoprecipitation) [4]: detected, although to a lesser extent

ΔLV: L8V9 mutant of human Bcl-xL BH4 polypeptide (FIG. 13) (SNREVDFLSYKLSQKGYS) [reference compound]
Inhibition of VDAC activity (VDAC-mediated sucrose uptake) ([1]; VDAC liposomes, 50 mM sucrose): did not inhibit

ΔFL: F12L13 mutant of human Bcl-xL BH4 polypeptide (FIG. 13) (SNRELVVDSYKLSQKGYS) [reference compound]
Inhibition of VDAC activity (VDAC-mediated sucrose uptake) ([1]; VDAC liposomes, 50 mM sucrose): did not inhibit

rBcl-xL: recombinant human Bcl-xL expressed as GST fusion in Escherichia coli, GST cleaved with thrombin
Inhibition of VDAC activity (VDAC-mediated sucrose uptake) ([1]; VDAC liposomes, 50 mM sucrose): inhibited | Effect on VDAC-free liposomes ([1]; VDAC-free liposomes): did not show any significant effect | Inhibition of Ca2+-induced mitochondrial ΔΨ loss [2]: inhibited | Inhibition of Ca2+-induced cytochrome c release [3]: inhibited | Interaction with VDAC (co-immunoprecipitation) [4]: interacted with VDAC to a similar level

LV89GG: L8V9 mutant of human Bcl-xL BH4 polypeptide (FIG. 13) (SNREGGVDFLSYKLSQKGYS) [reference compound]
Inhibition of VDAC activity (VDAC-mediated sucrose uptake) ([1]; VDAC liposomes, 50 mM sucrose): did not inhibit

SNRELVVDFLSYKLSQKGYS (listed as Homo sapiens) [BH4 polypeptide, amino acid nos: 4 to 23 of human Bcl-xL]
Inhibition of VP16-induced apoptosis [5]: no effect | Closure of VDAC ([1]; 20 μg/ml BH4 polypeptide): complete closure | Inhibition of rBax-induced enhancement of VDAC activity ([1]; VDAC liposomes, 5 μg/ml rBax, 50 mM sucrose): inhibited the rBax-induced enhancement of VDAC activity in a dose-dependent manner | Inhibition of VDAC activity (VDAC-mediated sucrose uptake) ([1]; VDAC liposomes, 50 mM sucrose): inhibited the VDAC activity in a concentration-dependent manner | Inhibition of VDAC activity (VDAC-mediated sucrose uptake) ([1]; VDAC liposomes, 50 mM sucrose, listed as BH4 polypeptide of BCl-xL): significantly inhibits | Molar concentration needed to inhibit ΔΨ loss and VDAC activity, relative to recombinant Bcl-xL ([2]; applies to Ca2+-induced ΔΨ loss and VDAC activity): about 25 fold | Inhibition of Ca2+-induced mitochondrial ΔΨ loss [2]: significantly inhibits | Binding to Bax [6]: did not bind

FL1213GG: F12L13 mutant of human Bcl-xL BH4 polypeptide (FIG. 13) (SNRELVVDGGSYKLSQKGYS) [reference compound]
Inhibition of VDAC activity (VDAC-mediated sucrose uptake) ([1]; VDAC liposomes, 50 mM sucrose): did not inhibit

L17W: Bcl-xL BH4 polypeptide with one amino acid substitution at L17 (SNRELVVDFLSYKWSQKGYS) [Polypeptide L17W, reference compound]
VDAC inhibitory activity as compared to VDAC inhibition of the normal BH4 polypeptide (fraction in words) ([1]; 20 μg/ml polypeptide, 50 mM sucrose): about one-half

eosin-C-RKKRRQRRR [TAT-only polypeptide, reference compound]
Inhibition of VP16-induced apoptosis [5]: did not significantly inhibit

SNRELVVDFLSYKLSQKGYS [Human Bcl-xL BH4 polypeptide (amino acid nos: 4 to 23 of human Bcl-xL)]
molar concentration needed to inhibit Ca2+-induced membrane potential loss and VDAC activity, relative to recombinant Bcl-xL [7]: ~25 fold
